In PMC2324120, “Disease mechanism for retinitis pigmentosa (RP11) caused by missense mutations in the splicing factor gene PRPF31” (Molecular Vision, 2008):

T1: His-tagged PRPF31, wild type (human, UniProt Q8WWY3 1-499)
T1 construct: also called WT PRPF31; PRPF31-His; not shown: His tag, C-terminal, kept
T1 sequence (looked up): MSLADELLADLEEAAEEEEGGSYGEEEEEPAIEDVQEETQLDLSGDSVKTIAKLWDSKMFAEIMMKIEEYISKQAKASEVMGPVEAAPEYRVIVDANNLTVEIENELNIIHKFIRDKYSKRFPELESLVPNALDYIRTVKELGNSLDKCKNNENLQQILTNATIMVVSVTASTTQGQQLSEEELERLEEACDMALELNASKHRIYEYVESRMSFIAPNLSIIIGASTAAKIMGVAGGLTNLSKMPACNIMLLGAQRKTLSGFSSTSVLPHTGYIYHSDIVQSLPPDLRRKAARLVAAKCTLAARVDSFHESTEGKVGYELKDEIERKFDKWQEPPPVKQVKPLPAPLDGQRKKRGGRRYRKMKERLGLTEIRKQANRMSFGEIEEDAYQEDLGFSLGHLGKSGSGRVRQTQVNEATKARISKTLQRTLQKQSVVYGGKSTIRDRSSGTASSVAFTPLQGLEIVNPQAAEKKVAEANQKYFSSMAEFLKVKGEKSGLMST

T2: GST-tagged PRPF6 C-terminal HAT-containing domain (PRPF6C, residues 607-941) (human, UniProt O94906 607-941)
T2 construct: PRPF6 (U5-102 kD protein), human, residues 607-941, HAT domains 6-9 according to Pfam analysis; the forward primer printed for PRPF6C is nearly the same as that of PRPF6M; Cloned in pGEX6P-1 via EcoRI and SalI; also called GST-PRPF6C; PRP6F-C; not shown: GST, N-terminal, kept
T2 sequence (looked up): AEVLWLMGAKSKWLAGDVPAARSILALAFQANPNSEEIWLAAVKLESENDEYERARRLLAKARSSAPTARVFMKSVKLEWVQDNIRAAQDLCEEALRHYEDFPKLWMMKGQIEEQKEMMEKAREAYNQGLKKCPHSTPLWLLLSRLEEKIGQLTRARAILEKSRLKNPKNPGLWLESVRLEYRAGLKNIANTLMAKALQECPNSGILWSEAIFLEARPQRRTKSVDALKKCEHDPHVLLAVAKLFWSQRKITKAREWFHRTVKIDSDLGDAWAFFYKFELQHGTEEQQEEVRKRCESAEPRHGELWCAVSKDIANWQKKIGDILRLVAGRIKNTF

B1: GST-tagged PRPF6 middle HAT-containing domain (PRPF6M, residues 307-607) (domain or fragment, human, UniProt O94906 307-607, looked up)
chain: HHPPAWIASARLEEVTGKLQVARNLIMKGTEMCPKSEDVWLEAARLQPGDTAKAVVAQAVRHLPQSVRIYIRAAELETDIRAKKRVLRKALEHVPNSVRLWKAAVELEEPEDARIMLSRAVECCPTSVELWLALARLETYENARKVLNKARENIPTDRHIWITAAKLEEANGNTQMVEKIIDRAITSLRANGVEINREQWIQDAEECDRAGSVATCQAVMRAVIGIGIEEEDRKHTWMEDADSCVAHNALECARAIYAYALQVFPSKKSVWLRAAYFEKNHGTRESLEALLQRAVAHCPKA
notes: PRPF6 (U5-102 kD protein), human, residues 307-607, HAT domains 1-5 according to Pfam analysis; Cloned in pGEX6P-1 via EcoRI and SalI; also called GST-PRPF6M; PRP6F-M; not shown: GST, N-terminal, kept
B2: His-tagged PRPF31 A216P mutant (natural protein, human, UniProt Q8WWY3 1-499, looked up)
chain: MSLADELLADLEEAAEEEEGGSYGEEEEEPAIEDVQEETQLDLSGDSVKTIAKLWDSKMFAEIMMKIEEYISKQAKASEVMGPVEAAPEYRVIVDANNLTVEIENELNIIHKFIRDKYSKRFPELESLVPNALDYIRTVKELGNSLDKCKNNENLQQILTNATIMVVSVTASTTQGQQLSEEELERLEEACDMALELNASKHRIYEYVESRMSFIPPNLSIIIGASTAAKIMGVAGGLTNLSKMPACNIMLLGAQRKTLSGFSSTSVLPHTGYIYHSDIVQSLPPDLRRKAARLVAAKCTLAARVDSFHESTEGKVGYELKDEIERKFDKWQEPPPVKQVKPLPAPLDGQRKKRGGRRYRKMKERLGLTEIRKQANRMSFGEIEEDAYQEDLGFSLGHLGKSGSGRVRQTQVNEATKARISKTLQRTLQKQSVVYGGKSTIRDRSSGTASSVAFTPLQGLEIVNPQAAEKKVAEANQKYFSSMAEFLKVKGEKSGLMST
notes: PRPF31 splicing factor, human, with the RP11 patient missense mutation A216P, cDNA in pTriEx-1; A216P is a disease mutation found in RP11 patients; also called mutant PRPF31; not shown: His tag, C-terminal, kept

What was measured:
Assay in all cases: pull-down; GST-tagged PRPF6 domain from 100 µl E. coli extract bound to glutathione sepharose beads in PBS, excess removed and beads washed; 0.1 nmol purified His-tagged PRPF31 added in 200 µl, 30 min at 4 °C; three washes with chilled PBS, eluted with reduced glutathione; Western blots with Penta-His and anti-GST antibodies; bands quantified and normalised to WT, four determinations
Conditions in all cases: both partners purified
[1] = molecular target: T1, His-tagged PRPF31, wild type
[2] = molecular target: T2, GST-tagged PRPF6 C-terminal …
[3] = molecular target: B1

binding result [1]	ratio of mutant:WT PRPF31 band in the pull-down [2]	ratio of mutant:WT PRPF31 band in the pull-down [3]	Binder
binds	–	–	B1
–	2.1 fold (mutant:WT)	4.2 fold (mutant:WT)	B2
